Results reported in patent US20200140504A1 (GENESEN, published 2020).
Primed or numbered codes have the meaning given here. Ends that are not written are not given here. FITC′ = fluorescein isothiocyanate

B1: TIP1-FITC (peptide)
peptide: {FITC′}-RQIKIWFQNRRMKWKKSHCRVLLI
notes: used for confocal microscopy; also called TIP1 (TIP1-FITC)

What was measured:
[1] = target: T1, MyD88 (myeloid differentiation 88), in THP1 human monocytes (human, UniProt Q99836 1-296); assay: confocal immunofluorescence, THP1 cells treated with TIP1-FITC and LPS
T1 construct: whole, on cells; Endogenous intracellular protein seen by immunofluorescence; Species follows from the THP1 human cells
T1 sequence (Q99836 whole entry): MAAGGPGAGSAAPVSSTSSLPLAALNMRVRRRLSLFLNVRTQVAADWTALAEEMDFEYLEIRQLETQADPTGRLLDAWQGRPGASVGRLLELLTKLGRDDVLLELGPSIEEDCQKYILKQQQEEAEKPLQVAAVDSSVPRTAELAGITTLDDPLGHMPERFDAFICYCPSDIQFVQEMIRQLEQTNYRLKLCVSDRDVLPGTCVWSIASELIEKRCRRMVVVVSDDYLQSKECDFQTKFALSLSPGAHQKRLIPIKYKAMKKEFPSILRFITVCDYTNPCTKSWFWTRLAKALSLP
Procedure: (§1) RAW 264.7 cells and THP1 cells were dispensed into 24-well plates to a cell number of 2×10⁵ cells/well, and then grown in an incubator overnight. Subsequently, combined treatment with TIP1 and LPS was performed. After 24 hours, the RAW 264.7 cells and the THP1 cells were fixed with 3.7% formaldehyde (Sigma-Aldrich Co. LLC) for 15 minutes, and immersed into 0.2% Triton X-100 (AMRESCO, Solon, Ohio, USA) for 15 minutes. Then, washing with PBS was performed three times and blocking with 2% BSA solution was performed. […] Subsequently, the cells were stained at room temperature for 15 minutes using 5 μM Hoechst 33258 (Sigma-Aldrich Co.), and the number of the fluorescently stained cells was counted using a confocal laser scanning microscope (LSM-700, Carl Zeiss MicroImaging GmbH). The images were analyzed using Zen 2009 software.
(§2) In addition, in order to identify binding of TIP1 to TLR4, TIP1-FITC was prepared by binding fluorescein isothiocyanate (FITC) to the N-terminus of TIP1. The THP1 cells in Example 1-2 were subjected to treatment with TIP1 (TIP1-FITC) or to combined treatment with LPS and TIP1, and then the number of fluorescently stained cells were counted using immunofluorescent staining and a confocal microscope according to the method described in Examples 2-4, thereby analyzing interactions between the proteins. […]

[2] = target: T2, Toll-like receptor 4 (TLR4), human (human, UniProt O00206 24-839); assay: confocal laser scanning microscopy, THP1 cells treated with TIP1-FITC with or without LPS
T2 construct: whole, on cells; also called hTLR4; human TLR4
T2 sequence (O00206 24-839): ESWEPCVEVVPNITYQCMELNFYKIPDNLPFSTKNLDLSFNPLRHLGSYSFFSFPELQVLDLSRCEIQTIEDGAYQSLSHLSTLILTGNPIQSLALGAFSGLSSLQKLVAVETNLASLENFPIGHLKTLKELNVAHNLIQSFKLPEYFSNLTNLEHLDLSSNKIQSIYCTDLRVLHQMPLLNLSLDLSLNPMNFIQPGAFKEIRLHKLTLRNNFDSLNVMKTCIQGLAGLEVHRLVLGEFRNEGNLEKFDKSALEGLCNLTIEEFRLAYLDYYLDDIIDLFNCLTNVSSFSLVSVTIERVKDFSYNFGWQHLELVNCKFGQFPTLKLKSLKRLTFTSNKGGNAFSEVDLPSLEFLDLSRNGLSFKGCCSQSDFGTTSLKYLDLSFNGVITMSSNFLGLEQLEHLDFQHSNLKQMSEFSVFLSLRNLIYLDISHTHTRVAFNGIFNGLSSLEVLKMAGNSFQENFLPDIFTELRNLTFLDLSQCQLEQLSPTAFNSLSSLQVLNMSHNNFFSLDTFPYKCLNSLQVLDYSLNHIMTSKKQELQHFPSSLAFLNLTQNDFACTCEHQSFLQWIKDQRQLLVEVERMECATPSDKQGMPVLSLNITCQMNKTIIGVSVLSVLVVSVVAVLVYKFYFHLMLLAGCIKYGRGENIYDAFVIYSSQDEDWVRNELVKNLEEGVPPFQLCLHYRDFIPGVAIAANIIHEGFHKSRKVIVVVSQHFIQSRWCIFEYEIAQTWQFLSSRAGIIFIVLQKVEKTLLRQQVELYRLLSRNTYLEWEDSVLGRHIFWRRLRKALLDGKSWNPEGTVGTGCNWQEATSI
Procedure: as §1, §2

[3] = target: T2, Toll-like receptor 4 (TLR4), human; assay: conclusion of Experimental Example 8 (SPR on TIR-domain peptides, data not given; confocal microscopy)

Row | binding result [1] | binding result [2] | binding result [3] | Binder
1 | binds | binds |  | B1
2 |  |  | binds | RQIKIWFQNRRMKWKKSHCRVLLI [TIP1 (Toll-like receptor inhibitory peptide 1)]
